These are literature values, as cited in publication PMC5963937.

The target of the series is LPL (Homo sapiens) (UniProt P06858).
UniProt P06858, sequence (P06858 28-475): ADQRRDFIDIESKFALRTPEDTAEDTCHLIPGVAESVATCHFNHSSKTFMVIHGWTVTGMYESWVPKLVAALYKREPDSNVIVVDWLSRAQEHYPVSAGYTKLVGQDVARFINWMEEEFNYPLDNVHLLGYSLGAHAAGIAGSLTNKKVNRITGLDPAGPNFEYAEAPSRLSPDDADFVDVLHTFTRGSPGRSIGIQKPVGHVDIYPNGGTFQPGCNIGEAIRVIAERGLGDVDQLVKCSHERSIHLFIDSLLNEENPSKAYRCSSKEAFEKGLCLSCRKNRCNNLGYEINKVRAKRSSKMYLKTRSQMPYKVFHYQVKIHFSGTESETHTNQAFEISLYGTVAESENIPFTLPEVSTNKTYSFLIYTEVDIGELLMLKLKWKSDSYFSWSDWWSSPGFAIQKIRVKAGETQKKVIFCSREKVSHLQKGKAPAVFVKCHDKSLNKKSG

As to GPIHBP1 (from UniProt Q8IV16), the equilibrium dissociation constant (Kd) (in general, the free concentration of one partner at which half of the binding sites on the other are occupied at equilibrium, for simple one-to-one binding) is 25 nM.
